The record followed here is patent US6403765B1, “Truncated Apaf-1 and methods of use thereof” (Thomas Jefferson University, priority 1998, dated 2002).

What all share (test): In vitro caspase 9 activation assay: recombinant Apaf-1 variants incubated with in vitro translated procaspase-9
Common to all, as to type: biochemical

Test [1] deals with T1, procaspase-9 (Homo sapiens, UniProt P55211, D315A).
T1 construct: schematic representation of full length procaspase-9; made in house; host or cells: coupled in vitro transcription/translation in rabbit reticulocyte lysate (TNT Kit, Promega)
T1 sequence (P55211 1-416 D315A): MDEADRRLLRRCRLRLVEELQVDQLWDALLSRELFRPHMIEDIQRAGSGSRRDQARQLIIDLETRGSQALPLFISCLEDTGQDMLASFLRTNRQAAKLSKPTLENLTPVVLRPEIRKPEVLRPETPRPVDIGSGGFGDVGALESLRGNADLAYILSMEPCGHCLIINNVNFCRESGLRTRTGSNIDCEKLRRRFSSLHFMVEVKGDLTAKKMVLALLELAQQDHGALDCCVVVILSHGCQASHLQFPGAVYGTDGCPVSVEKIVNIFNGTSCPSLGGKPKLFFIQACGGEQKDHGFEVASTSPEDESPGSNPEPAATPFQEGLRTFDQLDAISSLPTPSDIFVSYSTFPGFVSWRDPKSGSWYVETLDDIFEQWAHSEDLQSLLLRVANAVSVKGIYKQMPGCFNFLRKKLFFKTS
The conditions noted are these: 35S-labeled substrate, FIG. 3.

Test [2] relates to procaspase-9.
Test [3] deals with T2, procaspase-9 (Homo sapiens, UniProt P55211, C287A).
T2 construct: schematic representation of full length procaspase-9; made in house; host or cells: coupled in vitro transcription/translation in rabbit reticulocyte lysate (TNT Kit, Promega)
T2 sequence (P55211 1-416 C287A): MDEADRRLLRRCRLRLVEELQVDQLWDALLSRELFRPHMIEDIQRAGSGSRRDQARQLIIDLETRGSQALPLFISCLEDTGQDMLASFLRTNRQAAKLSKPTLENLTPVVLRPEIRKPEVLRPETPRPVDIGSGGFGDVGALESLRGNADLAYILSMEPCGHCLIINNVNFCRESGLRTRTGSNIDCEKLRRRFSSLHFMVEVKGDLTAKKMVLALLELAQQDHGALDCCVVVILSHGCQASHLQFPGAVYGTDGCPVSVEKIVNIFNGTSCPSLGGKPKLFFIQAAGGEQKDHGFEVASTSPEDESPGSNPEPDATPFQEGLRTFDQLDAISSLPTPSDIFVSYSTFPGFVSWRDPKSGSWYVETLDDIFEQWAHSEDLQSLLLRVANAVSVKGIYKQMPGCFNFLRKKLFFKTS

Test [4] concerns the target T3, procaspase-9 (Homo sapiens, UniProt P55211).
T3 construct: schematic representation of full length procaspase-9; made in house; host or cells: coupled in vitro transcription/translation in rabbit reticulocyte lysate (TNT Kit, Promega)
T3 sequence (P55211 134-416): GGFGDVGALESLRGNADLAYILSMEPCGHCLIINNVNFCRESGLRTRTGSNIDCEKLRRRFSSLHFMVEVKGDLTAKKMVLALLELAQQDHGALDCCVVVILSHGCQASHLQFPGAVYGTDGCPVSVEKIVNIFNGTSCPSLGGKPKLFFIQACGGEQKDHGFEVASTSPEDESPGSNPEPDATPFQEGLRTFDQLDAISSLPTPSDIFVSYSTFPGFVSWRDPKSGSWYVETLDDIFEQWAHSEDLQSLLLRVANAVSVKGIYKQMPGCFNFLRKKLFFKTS

The target of test [5] is T4, procaspase-9 (Homo sapiens, UniProt P55211).
T4 construct: schematic representation of full length procaspase-9; made in house; host or cells: coupled in vitro transcription/translation in rabbit reticulocyte lysate (TNT Kit, Promega)
T4 sequence (P55211 1-416): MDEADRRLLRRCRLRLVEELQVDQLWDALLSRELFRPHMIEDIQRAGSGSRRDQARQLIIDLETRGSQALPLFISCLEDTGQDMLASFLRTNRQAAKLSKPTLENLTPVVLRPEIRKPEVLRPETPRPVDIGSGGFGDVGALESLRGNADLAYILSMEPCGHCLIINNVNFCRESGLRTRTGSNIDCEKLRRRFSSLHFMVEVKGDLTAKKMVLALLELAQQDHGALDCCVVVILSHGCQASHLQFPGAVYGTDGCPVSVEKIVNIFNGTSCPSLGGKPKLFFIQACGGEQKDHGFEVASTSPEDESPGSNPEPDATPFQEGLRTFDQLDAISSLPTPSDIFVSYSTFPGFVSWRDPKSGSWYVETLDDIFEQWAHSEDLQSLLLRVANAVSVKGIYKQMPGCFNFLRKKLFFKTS
Particulars: in the absence of cytochrome c or dATP; 200 ng protein, 2 h at 30° C.; SDS-PAGE and autoradiography (FIG. 2A).

Setting [6] is: in the presence of non-radiolabeled WT procaspase-9, FIG. 14.

B1: Apaf-530: truncated Apaf-1 (residues 1-530) lacking its WD-40 repeats, recombinant (protein, UniProt O14727 1-530, looked up, fragment)
chain: MDAKARNCLLQHREALEKDIKTSYIMDHMISDGFLTISEEEKVRNEPTQQQRAAMLIKMILKKDNDSYVSFYNALLHEGYKDLAALLHDGIPVVSSSSGKDSVSGITSYVRTVLCEGGVPQRPVVFVTRKKLVNAIQQKLSKLKGEPGWVTIHGMAGCGKSVLAAEAVRDHSLLEGCFPGGVHWVSVGKQDKSGLLMKLQNLCTRLDQDESFSQRLPLNIEEAKDRLRILMLRKHPRSLLILDDVWDSWVLKAFDSQCQILLTTRDKSVTDSVMGPKYVVPVESSLGKEKGLEILSLFVNMKKADLPEQAHSIIKECKGSPLVVSLIGALLRDFPNRWEYYLKQLQNKQFKRIRKSSSYDYEALDEAMSISVEMLREDIKDYYTDLSILQKDVKVPTKVLCILWDMETEEVEDILQEFVNKSLLFCDRNGKSFRYYLHDLQVDFLTEKNCSQLQDLHKKIITQFQRYHQPHTLSPDQEDCMYWYNFLAYHMASAKMHKELCALMFSLDWIKAKTELVGPAHLIHEFVEYR
Turning to B1, the “processing of D315A mutant procaspase-9” value with procaspase-9 [1] is recorded as “unable to process”. Also, the “processing of WT or D330A mutant procaspase-9” value in the test on procaspase-9 [2] (35S-labeled substrate, FIG. 3) is on record as “produced the p35 fragment”. Besides, the “autoprocessing of C287A and R355E mutant procaspase-9” value with procaspase-9 [2] (mutants incubated separately or together, 1 hour at 30° C., FIG. 13) is on record as “none of the mutants were able to autoprocess”. Moreover, the “processing of procaspase-9 active site C287A mutant” value in the test with procaspase-9 [3] (35S-labeled substrate, FIG. 3) was “unable to promote processing”. In addition, the “processing of 35S-labeled C287A mutant procaspase-9” value in the test with procaspase-9 [3] (setting [6]) is recorded as “able to induce processing”. The “processing of prodomainless procaspase-9 (residues 134-416)” value with procaspase-9 [4] (35S-labeled substrate, FIG. 3) is on record as “prevented processing”. Further, in the test with procaspase-9 [4] (setting [6]), the “processing of 35S-labeled prodomainless procaspase-9” value was “not”. Also, the “processing of procaspase-9 to produce a 35 kDa fragment (p35)” value with procaspase-9 [5] is recorded as “able to promote processing of procaspase-9”.
